Reference: IntAct's records for PubMed 18022368

B1: MAD2L1-binding protein (Homo sapiens), Q15013 (parent)
chain: MAAPEAEVLSSAAVPDLEWYEKSEETHASQIELLETSSTQEPLNASEAFCPRDCMVPVVFPGPVSQEGCCQFTCELLKHIMYQRQQLPLPYEQLKHFYRKPSPQAEEMLKKKPRATTEVSSRKCQQALAELESVLSHLEDFFARTLVPRVLILLGGNALSPKEFYELDLSLLAPYSVDQSLSTAACLRRLFRAIFMADAFSELQAPPLMGTVVMAQGHRNCGEDWFRPKLNYRVPSRGHKLTVTLSCGRPSIRTTAWEDYIWFQAPVTFKGFRE

Variants of: B1
Conditions: with md2l1_human MAD2L1, Q13257
Sequence of md2l1_human MAD2L1, Q13257 (Q13257 whole entry): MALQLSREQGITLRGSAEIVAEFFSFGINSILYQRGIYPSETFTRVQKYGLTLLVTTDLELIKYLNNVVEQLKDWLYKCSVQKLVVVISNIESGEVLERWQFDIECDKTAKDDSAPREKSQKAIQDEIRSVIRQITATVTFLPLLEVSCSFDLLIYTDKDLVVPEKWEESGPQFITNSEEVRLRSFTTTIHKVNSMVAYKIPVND

effect of a mutation on the interaction | Variant
decreasing interaction | MAAPEAEVLSSAAVPDLEWYEKSEETHASQIELLETSSTQEPLNASEAFCPRDCMVPVVFPGPVSQEGCCQFTCELLKHIMYQRQQLPLPYEQLKHFYRKPSPQAEEMLKKKPRATTEVSSRKCQQALAELESVLSHLEDFFARTLVPRVLILLGGNALSPKEFYELDLSLLAPYSVDQSLSTAACLRRLARAIFMADAFSELQAPPLMGTVVMAQGHRNCGEDWFRPKLNYRVPSRGHKLTVTLSCGRPSIRTTAWEDYIWFQAPVTFKGFRE [F191A]
decreasing interaction | MAAPEAEVLSSAAVPDLEWYEKSEETHASQIELLETSSTQEPLNASEAFCPRDCMVPVVFPGPVSQEGCCQFTCELLKHIMYARQQLPLPYEQLKHFYRKPSPQAEEMLKKKPRATTEVSSRKCQQALAELESVLSHLEDFFARTLVPRVLILLGGNALSPKEFYELDLSLLAPYSVDQSLSTAACLRRLARAIFMADAFSELQAPPLMGTVVMAQGHRNCGEDWFRPKLNYRVPSRGHKLTVTLSCGRPSIRTTAWEDYIWFQAPVTFKGFRE [Q83A;F191A]
decreasing interaction | MAAPEAEVLSSAAVPDLEWYEKSEETHASQIELLETSSTQEPLNASEAFCPRDCMVPVVFPGPVSQEGCCQFTCELLKHIMYARQQLPLPYEQLKHFYRKPSPQAEEMLKKKPRATTEVSSRKCQQALAELESVLSHLEDFFARTLVPRVLILLGGNALSPKEFYELDLSLLAPYSVDQSLSTAACLRRLFRAIFMADAFSELQAPPLMGTVVMAQGHRNCGEDWFRPKLNYRVPSRGHKLTVTLSCGRPSIRTTAWEDYIWFQAPVTFKGFRE [Q83A]
